Assay [1] addresses dimerization domain (40 aa) of the Gal4 transcriptional activator protein (pBT-LGF2). The assay can be described thus: two-hybrid; bacterial two-hybrid (BacterioMatch, E. coli BM2H; bait pBT, target pTRG); minimum inhibitory concentration of carbenicillin (0-12.8 mg/mL), 0.1 mM IPTG, overnight at 30°C.
For assay [2], the target named is T1, N-His-tagged periplasmic domain of ExeD, purified (A. hydrophila, UniProt P31780 26-355).
T1 construct: periplasmic domain of ExeD, A. hydrophila, in NdeI/XhoI of pET30a; the printed primers carry no His codons and no stop codon, so the tag may be the vector's C-terminal one (my surmise); also called P-ExeD; N-His-tagged-P-ExeD; source: E. coli BL21, purified (Ni-NTA, Resource S ion exchange)
T1 sequence: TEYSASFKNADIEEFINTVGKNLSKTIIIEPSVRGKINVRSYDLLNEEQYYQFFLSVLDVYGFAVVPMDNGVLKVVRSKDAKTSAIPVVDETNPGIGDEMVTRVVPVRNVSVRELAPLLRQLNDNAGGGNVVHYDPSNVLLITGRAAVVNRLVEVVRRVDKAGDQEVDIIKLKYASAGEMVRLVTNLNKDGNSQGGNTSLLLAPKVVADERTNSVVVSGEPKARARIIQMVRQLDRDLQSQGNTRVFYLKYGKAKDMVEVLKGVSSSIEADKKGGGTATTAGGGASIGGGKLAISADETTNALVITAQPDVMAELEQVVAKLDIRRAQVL
The assay can be described thus: fluorescence polarisation; steady state rotational anisotropy; F-labeled P-ExeB 50 nM, titration of P-ExeD 0-4000 nM, RT buffer, 21°C; apparent Kd from a rectangular hyperbola. The conditions noted are these: both partners purified. For orientation: In fluorescence polarisation assays a small probe gives low polarisation when free and higher when bound to something large.

In assay [3] the target is T2, periplasmic domain of ExeB (bacterial two-hybrid fusion) (A. hydrophila, UniProt P45755 58-226).
T2 construct: periplasmic domain of ExeB, A. hydrophila, amplified from pGAD424-P-ExeB; Stood in pBT and in pTRG; also called P-ExeB; source: bacterial two-hybrid fusion (E. coli BM2H)
T2 sequence: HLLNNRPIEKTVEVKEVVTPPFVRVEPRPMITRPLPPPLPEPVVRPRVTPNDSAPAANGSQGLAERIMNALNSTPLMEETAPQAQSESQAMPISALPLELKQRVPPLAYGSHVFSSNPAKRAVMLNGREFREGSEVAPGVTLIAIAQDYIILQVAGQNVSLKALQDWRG
The experiment in a line: two-hybrid; bacterial two-hybrid (BacterioMatch, E. coli BM2H; bait pBT, target pTRG); β-galactosidase activity of permeabilized cells, 0.02 mM IPTG. The conditions noted are these: partners not purified.

Results on three molecules are retold here after PMC4098917, “Assembly of the Type Two Secretion System in Aeromonas hydrophila Involves Direct Interaction between the Periplasmic Domains of the Assembly Factor ExeB and the Secretin ExeD” (PLoS ONE, 2014).

In the case of “domain (90aa) of the mutant form of the Gal11 protein (pTRG-Gal11P) (domain or fragment)”, the MIC of carbenicillin in assay [1] was 12.8 mg/mL.

B1: fluorescein-EX labeled N-His-tagged periplasmic domain of ExeB (domain or fragment)
chain: T2 sequence
modifications: fluorescein (Fluorescein-EX Protein Labeling kit), ~0.8 moles of dye per mole of protein
notes: periplasmic domain of ExeB, A. hydrophila, in pET30a; Same construct as m27, purified and labelled; also called F-labeled P-ExeB; fluorescein-EX labeled P-ExeB; source: E. coli BL21, purified (Ni-NTA, Resource S ion exchange)
For B1, in assay [2], the Kd worked out at 1190 ± 160 nM.

B2: periplasmic domain of ExeD (bacterial two-hybrid fusion) (domain or fragment)
chain: T1 sequence
notes: periplasmic domain of ExeD, A. hydrophila, amplified from pGAD424-P-ExeD; Stood in pTRG and in pBT; also called P-ExeD; full-length P-ExeD; source: bacterial two-hybrid fusion (E. coli BM2H)
Turning to B2, the “fold β-galactosidase activity over cells with the empty vectors” value in assay [3] was > 11 fold.
